Molecular target: T1, Extradenticle (Exd), residues 237-310 of isoform A (homeodomain and ten further residues) (Drosophila)
T1 chain: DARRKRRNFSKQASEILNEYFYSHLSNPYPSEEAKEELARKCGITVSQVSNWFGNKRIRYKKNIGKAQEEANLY
Test: crystal structure

- binding result: binds
B1: Abdominal-B (AbdB), residues 146-229 of isoform A (W motif, linker and homeodomain) (domain or fragment)
chain: not shown

From article PMC6166240 (Cell reports, 2018)
